Data: patent US20170298425

Tests used:
Assay in all cases: cell_activity
[1] = biological target: TcI (cI857, A67T) (bacteriophage lambda) (UniProt P03034); conditions: GFP derepression fold change 34.2 to 40 C, E. coli; SEM 404; text gives >1432
[2] = biological target: TcI38 (bacteriophage lambda) (UniProt P03034); conditions: GFP derepression fold change 32.4 to 40 C, E. coli; SEM 160
[3] = biological target: TcI42 (bacteriophage lambda) (UniProt P03034); conditions: GFP derepression fold change 32.4 to 45.7 C, E. coli; SEM 444
[4] = system: TlpA (in cell) (Salmonella enterica); conditions: GFP derepression fold change 31.4 to 44.6 C, E. coli; SEM 45
[5] = system: TlpA36 (Salmonella enterica); conditions: GFP derepression fold change 31.4 to 44.6 C, E. coli; SEM 63
[6] = system: TlpA39 (Salmonella enterica); conditions: GFP derepression fold change 31.4 to 44.6 C, E. coli; SEM 434

Row | Substance | activity [1] [fold] | activity [2] [fold] | activity [3] [fold] | activity [4] [fold] | activity [5] [fold] | activity [6] [fold]
1 | lambda tandem pR/pL operator/promoter | 1430 | 1030 | 1690 | – | – | –
2 | pTlpA operator/promoter, 52 bp | – | – | – | 355 | 370 | 1520
